Data as given in PMC7696055 (Pharmaceutics, 2020).

How the values were obtained:
A431/CCKBR tumors = details: mouse, in vivo, iv
Excerpt: The image reconstruction and processing was accomplished by using VivoQuant 3.0 Patch1 software.

[1] = cited from earlier work
Excerpt: The radiolabeled PP-F11N is a small molecular weight peptide (2.032 kDa), which can be reabsorbed in the proximal tu ...

SMILES | location of radioactive signals in SPECT/CT (A431/CCKBR tumors) | radiation dose received by stomach (median) ([1]; MTC patients, highest organ dose) [Gy/GBq] | kidney radiation dose ([1]; six MTC patients)
CCCC[C@H](NC(=O)[C@H](Cc1c[nH]c2ccccc12)NC(=O)CNC(=O)[C@H](Cc1ccc(O)cc1)NC(=O)[C@H](C)NC(=O)[C@@H](CCC(=O)O)NC(=O)[C@@H](CCC(=O)O)NC(=O)[C@@H](CCC(=O)O)NC(=O)[C@@H](CCC(=O)O)NC(=O)[C@@H](CCC(=O)O)NC(=O)[C@@H](CCC(=O)O)NC(=O)CN1CCN(CC(=O)O)CCN(CC(=O)O)CCN(CC(=O)O)CC1)C(=O)N[C@@H](CC(=O)O)C(=O)N[C@@H](Cc1ccccc1)C(N)=O [[^111In]In-PP-F11N, metal not drawn] | only detected in the excretion organs including kidneys and bladder | – | –
CCCC[C@H](NC(=O)[C@H](Cc1c[nH]c2ccccc12)NC(=O)CNC(=O)[C@H](Cc1ccc(O)cc1)NC(=O)[C@H](C)NC(=O)[C@@H](CCC(=O)O)NC(=O)[C@@H](CCC(=O)O)NC(=O)[C@@H](CCC(=O)O)NC(=O)[C@@H](CCC(=O)O)NC(=O)[C@@H](CCC(=O)O)NC(=O)[C@@H](CCC(=O)O)NC(=O)CN1CCN(CC(=O)O)CCN(CC(=O)O)CCN(CC(=O)O)CC1)C(=O)N[C@@H](CC(=O)O)C(=O)N[C@@H](Cc1ccccc1)C(N)=O [[^177Lu]Lu-PP-F11N, metal not drawn] | – | 0.42 | relatively low kidney radiation dose
